# Data taken from US9889181B2, “Bacteriophage lysin and antibiotic combinations against gram positive bacteria” (priority 2012, dated 2018).
# B1: PlySs2: bacteriophage lysin derived from Streptococcus suis, amino acid sequence of FIG. 29 (SEQ ID NO: 1) (protein, listed as Streptococcus suis)
# chain: MTTVNEALNNVRAQVGSGVSVGNGECYALASWYERMISPDATVGLGAGVGWVSGAIGDTISAKNIGSSYNWQANGWTVSTSGPFKAGQIVTLGATPGNPYGHVVIVEAVDGDRLTILEQNYGGKRYPVRNYYSAASYRQQVVHYITPPGTVAQSAPNLAGSRSYRETGTMTVTVDALNVRRAPNTSGEIVAVYKRGESFDYDTVIIDVNGYVWVSYIGGSGKRNYVATGATKDGKRFGNAWGTFK
# Legend:
# [1] = system: 20 different MSSA and 42 MRSA strains; assay: Time-kill assay, single agents at 1×MIC; assay type: cell-based, Staphylococcus aureus
# Method: In order to more fully evaluate PlySs2's applicability to clinical Staphylococcal infections, time kill studies were undertaken against numerous Staphylococcus aureus strains, including methicillin resistant and methicillin sensitive strains. Time kill assays were performed according to CLSI methodology (CLSI document M07-A9 column 32 No. 2) on 42 methicillin resistant S. aureus (MRSA) strains and 20 methicillin sensitive S. aureus (MSSA) strains. Cultures of each strain (5.5×10^5-1×10^6 starting inoculum) were treated with PlySs2 lysin and with antibiotics daptomycin, oxacillin or vancomycin for comparison for 6 hours with aeration. MRSA and MSSA strains were treated with PlySs2, daptomycin and vancomycin. MSSA strains were also treated with oxacillin. 1×MIC concentrations of the different antibiotics were utilized, based on published and established antibiotic MIC values. PlySs2 lysin treatment was at approximately 1×MIC as previously determined (see TABLE 2 above). Culture aliquots were removed hourly up to 6 hours (time points taken at 15 and 30 min, 1 hr, 2 hr, 3 hr, 4 hr, 5 hr, and 6 hr) and added to a PBS/charcoal solution (to inactivate each drug), which was then serially diluted and plated for bacterial viability. The resulting log CFU/mL was plotted for each culture. Growth controls were included for each strain and represent bacterial growth in the absence of any antibacterial agent. Exemplary log kill curves for selected MRSA strains are depicted in FIG. 1. Exemplary log kill curves for selected MSSA strains are depicted in FIG. 2.
# Rapid-kill kinetics are desirable in the clinical setting to treat patients with fulminant bacterial infections.
# [2] = system: Streptococcus pyogenes, Group A; assay: MIC, broth microdilution (CLSI M07-A9); conditions: Group A (54)
# [3] = system: Escherichia coli; assay: MIC, broth microdilution (CLSI M07-A9)
# [4] = system: Lactococcus spp.; assay: MIC, human gut bacteria; assay type: cell-based; conditions: N 3
# [5] = system: MRSA; assay: MIC, broth microdilution (CLSI M07-A9)
# [6] = system: Acinetobacter baumannii; assay: MIC, broth microdilution (CLSI M07-A9); conditions: Acinetobacter baumannii (8)
# [7] = system: Listeria monocytogenes; assay: MIC, broth microdilution (CLSI M07-A9); conditions: Listeria monocytogenes (12)
# [8] = system: MRSA strain 269 (MW2); assay: Combination MIC in 15% surfactant (Survanta); assay type: cell-based, Staphylococcus aureus
# [9] = Staphylcoccus aureus Methicillin resistant (120)
molecule,measurement,setting,value
B1,time to reach bactericidal levels (≧3-log10 reduction in CFUs),[1]; 1×MIC,≤ 30 minutes
same,comparative kill,"[1]; 1×MIC, up to 6 hours",greater and faster than any antibiotic
same,maximal kill (log reduction),"[1]; all MRSA and MSSA strains tested, generally within the first hour of incubation",≥ 3 log
same,MIC 50%,[2],2 µg/mL
same,MIC 90%,[2],8 µg/mL
same,MIC Range,[2],0.5 to 8 µg/mL
same,MIC 50%,[3]; Escherichia coli (6),>512 µg/mL
same,MIC 90%,[3]; Escherichia coli (6),>512 µg/mL
same,MIC Range,[3]; Escherichia coli (6),>512 µg/mL
same,CF-301 MIC,"[3]; Escherichia coli, N 10, human gut bacteria",>512 µg/mL
same,CF-301 MIC,[4],>512 µg/mL
same,MIC90,[5]; MRSA (n = 45),0.15 µM
same,MIC 50%,[5]; [9],4 µg/mL
same,MIC 90%,[5]; [9],8 µg/mL
same,MIC Range,[5]; [9],1 to 16 µg/mL
same,MIC,"[5]; strain MW2, without DTT",32 µg/mL
same,MIC 50%,[6],>512 µg/mL
same,MIC 90%,[6],>512 µg/mL
same,MIC Range,[6],>512 µg/mL
same,MIC 50%,[7],128 µg/mL
same,MIC 90%,[7],512 µg/mL
same,MIC Range,[7],1 to 512 µg/mL
same,effective combination concentration as fraction of the MIC,[8],⅛
same,effective concentration in PlySs2 plus daptomycin combination MIC,[8]; 24 hours,2 µg/mL
